To fix the notation:
B1: cAb-14 (antibody, human IgG4 S228P, kappa, V domains shown)
VH: EVQLQQSVAELVRPGASVKLSCTASGFNIKNTYIHWVKQRPEQGLEWIGRIDPANGNTKYAPKFQGKASIIVDTSSNTAYLQLSSLTSEDTAIYYCARYYASSPYYYNMDYWGQGTSVTVSS
VL: DIQMTQSPASLSVSVGETVTITCRASENIYSNLAWYQQKQGKSPQLLVYAATNLADGVPSRFSGSGSGTQYSLKINSLQSEDFGSYYCQHFWGTFTFGSGTKLEIKR
notes: human-mouse chimeric antibody, human IgG4 constant region; also called antibody number 14; NKG2A chimeric antibody
B2: cAb-9 (antibody, human IgG4 S228P, kappa, V domains shown)
VH: EVQLQQSVAELVRPGASVKLSCTASGFNIQNTYMHWVKERPEQGLEWIGRIDPANGDTEFAPKFQGKATLTTDTSSNTAYLQLSSLTSEDTAIYYCGRERYFYGSRGFAYWGQGTLVTVSA
VL: DILMTQSPPSMSVSLGDTVSITCHASQGISSNIGWLQQKPGKSFKGLIYHGTNLEDGVPSRFSGSGSGADYSLTISSLESEDFADYYCVQYAQFPWTFGGGTKLEIKR
notes: human-mouse chimeric antibody, human IgG4 constant region; also called antibody number 9; NKG2A chimeric antibody
B3: cAb-17 (antibody, human IgG4 S228P, kappa, V domains shown)
VH: EVQLQQSVAELVRPGASVKLSCTASGFNIKNTYIDWVKQRPEQGLEWIGNIDPANGNTKYAPKFQGKATITADTSSNTAYVQLSSLTSEDTAIYYCARWGGWDVRFAYWGQGTLVTVSA
VL: DIKMTQSPSSMYASLGERVTITCKASQDINTYLSWFQQKPGKSPKTLIYRANRLVDGVPSRFSGSGSGQNYSLTISSLEYEDMGIYYCLQYDEFPLTFGAGTKLELKR
notes: human-mouse chimeric antibody, human IgG4 constant region; also called antibody number 17; NKG2A chimeric antibody
B4: cAb-24 (antibody, human IgG4 S228P, kappa, V domains shown)
VH: EVQLQQSVAELVRPGASVKLSCTASGFNIQNTYMHWVKQRPEQGLEWIGRIDPANGNTKYAPKFQGKATITADTSSNTAYLQLSSLTSEDTAIYYCARYYDSRYGYWGQGTTLTVSS
VL: B3 VL with T31S, K45T, N70D, M83L, Y87F, L96W, A100G, L106I
notes: human-mouse chimeric antibody, human IgG4 constant region; also called antibody number 24; NKG2A chimeric antibody
B5: cAb-33 (antibody, human IgG4 S228P, kappa, V domains shown)
VH: B3 VH with I34M, N50R, V81L, W99E, G101N, V104D, R105W, A107V
VL: DVLMTQTPLSLPVSLGDQASISCRSSQSIVHSNGNTYLEWFLQKPGQSPKLLIYKVSNRFSGVPDRFSGSGSGTDFTLKISRVEAEDLGVYYCFQGSHVPPTFGGGTKLEIKR
notes: human-mouse chimeric antibody, human IgG4 constant region; also called antibody number 33; NKG2A chimeric antibody
B6: cAb-35 (antibody, human IgG4 S228P, kappa, V domains shown)
VH: B3 VH with I34M, N50R, Y60H, A72T, V81L
VL: B3 VL with T22N, K24Q, T31S, Y49H, N70D, Y91F
notes: human-mouse chimeric antibody, human IgG4 constant region; also called antibody number 35; NKG2A chimeric antibody
B7: cAb-52 (antibody, human IgG4 S228P, kappa, V domains shown)
VH: EVQLQQSVAELVRPGASVKLSCTASGFNIQNTYLHWVKQRPEQGLEWIGRIDPANDNIKYVPKFQGKATITADTSSNTAYLQLSSLTSEDTAIYYCTRHGLFYEGWFAYWGQGTLVTVST
VL: EIVLTQSPALMAASPGEKVTITCSVSSSISSSNLHWYQQKSGTSPKPWIYGTSNLASGVPVRFSGSGSGTSYSLTISSMEAEDAATYYCQQWSSYPYTFGSGTKLEIKR
notes: human-mouse chimeric antibody, human IgG4 constant region; also called antibody number 52; NKG2A chimeric antibody
B8: hu-52VH-13/VL-11 (antibody, human IgG4 S228P, kappa, V domains shown)
VH: QVQLVQSGAEVKKPGASVKVSCKASGFNIQNTYLHWVRQAPGQGLEWMGRIDPANDNIKYVPKFQGRVTMTADTSTNTAYMELSSLRSEDTAVYYCTRHGLFYEGWFAYWGQGTLVTVSS
VL: DIQLTQSPSSLSASVGDRVTITCSVSSSISSSNLHWYQQKPGKAPKPLIYGTSNLASGVPSRFSGSGSGTDYTLTISSLQPEDAATYYCQQWSSYPYTFGQGTKLEIKR
notes: full-length humanized antibody; also called hu-52 humanized antibody
B9: hu-52VH-13/VL-31 (antibody, human IgG4 S228P, kappa, V domains shown)
VH: B8 VH
VL: EIVLTQSPATLSLSPGERATLSCSVSSSISSSNLHWYQQKPGQAPRPLIYGTSNLASGIPARFSGSGSGTDYTLTISSLEPEDAAVYYCQQWSSYPYTFGQGTKLEIKR
notes: as for B8
B10: hu-52VH-23/VL-21 (antibody, human IgG4 S228P, kappa, V domains shown)
VH: B8 VH with T76I, S85R, E89D
VL: B8 VL with S10T, D71E, E82D
notes: as for B8
B11: hu-52VH-33/VL-11 (antibody, human IgG4 S228P, kappa, V domains shown)
VH: B8 VH with A16S, M70I
VL: B8 VL
notes: full-length humanized IgG4 antibody (not the L235E/D265A/R409K IgG4 mutant); also called hu-52 humanized antibody
B12: hu-52VH-23/VL-11 (antibody, human IgG4 S228P, kappa, V domains shown)
VH: B8 VH with T76I, S85R, E89D
VL: B8 VL
notes: as for B8
B13: hu-52VH-33/VL-21 (antibody, human IgG4 S228P, kappa, V domains shown)
VH: B8 VH with A16S, M70I
VL: B8 VL with S10T, D71E, E82D
notes: as for B8
B14: hu-52VH-23/VL-31 (antibody, human IgG4 S228P, kappa, V domains shown)
VH: B8 VH with T76I, S85R, E89D
VL: B9 VL
notes: as for B8
B15: hu-52VH-13/VL-21 (antibody, human IgG4 S228P, kappa, V domains shown)
VH: B8 VH
VL: B8 VL with S10T, D71E, E82D
notes: as for B8
B16: cAb-43 (antibody, human IgG4 S228P, kappa, V domains shown)
VH: EVQLQQSVAELVRPGASVKLSCTASGFNIQNTYIHWVKQRPEQGLEWIGRIDPASGSTEYAPKFQGKATITADTSSNSGYLQLSSLTSEDTAIYYCARYGNFLYYYSMDYWGQGTSVTVSA
VL: DIVMTQAAPSVPVTPGESVSISCRSNKSLLHSNGNTYLYWFLQRPGQSPQLLIYRMSNLASGVPDRFSGSGSGTAFTLRISRVEAEDVGVYYCMQHLENPYTFGGGTKLEIKR
notes: human-mouse chimeric antibody, human IgG4 constant region; also called antibody number 43; NKG2A chimeric antibody
B17: hu-43VH-13/VL-11 (antibody, human IgG4 S228P, kappa, V domains shown)
VH: QVQLVQSGAEVKKPGASVKVSCKASGFNIQNTYIHWVRQAPGQGLEWIGRIDPASGSTEYAPKFQGRATITADTSTNTGYMELSSLRSEDTAVYYCARYGNFLYYYSMDYWGQGTLVTVSS
VL: B16 VL with A7S, A8P, P9L, V11L, S18P, V19A, R44K, A75D, R79K, G105Q
B18: hu-43VH-11/VL-31 (antibody, human IgG4 S228P, kappa, V domains shown)
VH: B17 VH with I48M, A68V, I70M
VL: DIVMTQTPLSLSVTPGQPASISCRSNKSLLHSNGNTYLYWFLQKPGQPPQLLIYRMSNLASGVPDRFSGSGSGTDFTLKISRVEAEDVGVYYCMQHLENPYTFGQGTKLEIRT
B19: hu-43VH-11/VL-21 (antibody, human IgG4 S228P, kappa, V domains shown)
VH: B17 VH with I48M, A68V, I70M
VL: B18 VL with T7S, S12P, P15L, L42Q, K44R, P48S, Q50R, R112K, T113R
B20: hu-43VH-21/VL-11 (antibody, human IgG4 S228P, kappa, V domains shown)
VH: B17 VH with I48M, A68V, I70M, T76I, S85R, E89D
VL: B18 VL with T7S, S12P, Q17E, P48S, R112K, T113R

The record followed here is patent publication US20260209347A1 (BIORAY PHARMACEUTICAL, published 2026).

Substitutions are numbered along the chain they refer to. Names and notes keep the numbering of the source.

The target of the first assay is T1, human NKG2A/CD94 on cells (CHOK1-hNKG2A/CD94) (human, UniProt P26715 1-233; Q13241 1-179).
T1 construct: whole, on cells; the killing assays (functional rows) used NK92 cells or primary human NK cells that carry the receptor; also called human NKG2A overexpressing cells; human NKG2A overexpressing cell line
T1 sequence (P26715 whole entry, chain 1 of 2): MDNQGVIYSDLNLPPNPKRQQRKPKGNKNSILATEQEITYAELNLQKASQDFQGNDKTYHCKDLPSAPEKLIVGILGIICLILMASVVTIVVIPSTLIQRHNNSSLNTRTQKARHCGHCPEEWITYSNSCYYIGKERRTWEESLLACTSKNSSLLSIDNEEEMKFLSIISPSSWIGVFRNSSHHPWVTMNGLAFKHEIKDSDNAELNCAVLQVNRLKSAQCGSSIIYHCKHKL
T1 sequence (Q13241 whole entry, chain 2 of 2): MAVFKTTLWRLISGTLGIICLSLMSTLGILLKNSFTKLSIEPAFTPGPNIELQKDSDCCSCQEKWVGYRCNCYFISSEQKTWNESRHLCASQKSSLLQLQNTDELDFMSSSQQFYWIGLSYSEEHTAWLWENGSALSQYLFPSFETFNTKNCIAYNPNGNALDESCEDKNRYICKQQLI
Put plainly: FACS on CHOK1-hNKG2A/CD94 cells. As to the method: (§1) Human NKG2A overexpressing cells (CHOK1-hNKG2A/CD94), cyno NKG2A overexpressing cells (CHOK1-cynoNKG2A/CD94), and human NKG2C overexpressing cells (CHOK1-hNKG2C/CD94) were digested with TrypLE (purchased from Gibco). Cells were collected by centrifugation, then resuspended to 2E6/mL with FACS buffer (PBS+2% FBS). The cells were added to a 96-well cell plate at 100 μL per well, and the supernatant was discarded after centrifugation. The antibody was gradiently diluted with FACS buffer (initial concentration of 200 nM, 5-fold dilution, including point 0, a total of 10 concentration points), added to the cells at 100 μL/well, mixed, and incubated at 4° C. for 1 hour. The incubated cells were centrifuged at 300 g for 5 min and washed twice with FACS buffer. Secondary antibody, anti-human IgG fluorescent secondary antibody 488 (purchased from Thermofisher A-11013), was added, incubated at 4° C. for one hour, then the cells were washed twice with FACS buffer, resuspended in PBS and analyzed by FACS instrument.
As to B1, the binding result is given as “binds”.

In the case of B2, the binding result was “binds”.

For the molecule B3, the binding result is given as “binds”.

B4: the binding result is reported as “binds”.

As to B5, the binding result is “binds”.

Regarding B6, the binding result was “binds”.

The target in the next assay is T1, human NKG2A/CD94 on cells …. Put plainly: FACS on human NKG2A overexpressing cell line. As for the experimental part:
as §1
The binding activity of humanized antibodies to human NKG2A overexpressing cell line was detected by FACS (refer to Example 4 for FACS). The maximum MFIs of cAb-43 and its humanized mutant antibodies to human NKG2A overexpressing cell line were greater than that of the Z270 control antibody.
For B7, the “Maximum MFI” value is 18800 MFI.

For B8, the “Maximum MFI” value was 18800 MFI.

In the case of B9, the “Maximum MFI” value came to 18800 MFI.

In the case of B10, the “Maximum MFI” value was determined as 18000 MFI.

In the case of B11, the “Maximum MFI” value came to 18800 MFI.

B12: the “Maximum MFI” value was 18700 MFI.

For B13, the “Maximum MFI” value was found to be 18000 MFI.

Regarding B14, the “Maximum MFI” value was determined as 18100 MFI.

On to B15, for which the “Maximum MFI” value was determined as 18900 MFI.

The target is the same in the next assay. Put plainly: cell-based or functional assay.
For the molecule B7, the “IC50 (nM), killing of LCL721.221 target cells by NK92 cells” value (“IC50 (nM), killing” below) was determined as 0.28 nM.

With B8, the “IC50 (nM), killing” value was 0.19 nM.

Regarding B9, the “IC50 (nM), killing” value came out at 0.16 nM.

On to B10, for which the “IC50 (nM), killing” value came to 0.12 nM.

For B11, the “IC50 (nM), killing” value was determined as 0.09 nM.

As for B12, the “IC50 (nM), killing” value stood at 0.13 nM.

Turning to B15, the “IC50 (nM), killing” value came out at 0.14 nM.

The target of a further assay is T2, human NKG2C/CD94 on cells (CHOK1-hNKG2C/CD94) (human, UniProt P26717 1-231; Q13241 1-179).
T2 construct: whole, on cells; also called human NKG2C overexpressing cells; human NKG2C overexpressing cell line
T2 sequence (P26717 whole entry, chain 1 of 2): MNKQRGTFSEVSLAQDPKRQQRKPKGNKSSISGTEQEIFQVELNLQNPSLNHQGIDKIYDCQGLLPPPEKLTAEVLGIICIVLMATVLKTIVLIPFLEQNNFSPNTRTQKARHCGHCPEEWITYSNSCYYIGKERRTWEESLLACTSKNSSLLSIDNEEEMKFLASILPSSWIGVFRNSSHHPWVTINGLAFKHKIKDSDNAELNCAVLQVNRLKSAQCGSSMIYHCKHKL
T2 sequence (Q13241 whole entry, chain 2 of 2): as the sequence (Q13241 whole entry, chain 2 of 2) above
Put plainly: FACS on CHOK1-hNKG2C/CD94 cells. As to the method:
as §1
For B7, the binding result is reported as “no binding (tested: initial concentration of 200 nM)”.

In the case of B1, the binding result was “no binding (tested: initial concentration of 200 nM)”.

For B2, the binding result is recorded as “no binding (tested: initial concentration of 200 nM)”.

For the molecule B3, the binding result is recorded as “no binding (tested: initial concentration of 200 nM)”.

In the case of B4, the binding result was “no binding (tested: initial concentration of 200 nM)”.

For B5, the binding result is “no binding (tested: initial concentration of 200 nM)”.

With B6, the binding result is given as “no binding (tested: initial concentration of 200 nM)”.

For B16, the binding result is given as “no binding (tested: initial concentration of 200 nM)”.

For another assay, the target named is T1, human NKG2A/CD94 on cells …. Put plainly: cell-based or functional assay. This is another data set of the same source.
With B17, the “IC50 (nM), killing” value is 0.37 nM.

As to B18, the “IC50 (nM), killing” value was found to be 0.45 nM.

Turning to B16, the “IC50 (nM), killing” value worked out at 0.28 nM.

Take B19: the “IC50 (nM), killing” value came to 0.33 nM.

Turning to B20, the “IC50 (nM), killing” value was determined as 0.52 nM.
